Measured values from US20260265396A1.
Substitutions are numbered along the chain they refer to.

B1: bispecific binding molecule (format of WO2022/258841) with h26D3 scFv module (bispecific antibody, part only; not given: Cargo antibody chains, linkers, domain order, V domains shown, not shown: another chain or arm of the molecule; large carriers; small tags and cut ends)
VH: EVQLVQSGAEVKKPGSSVKVSCKASGYIFTDYNMDWVRQAPGQGLEWIGDINPDYDTTSYNEKFKGRATLTVDKSTSTAYMELSSLRSEDTAVYYCARGGYSGSSYYHPMDYWGQGTLVTVSS
VL: DIQMTQSPSSVSASVGDRVTITCKSSQSLLYSTNQKNYLAWYQQKPGKAPKLLIYWASTRESGVPSRFSGSGSGTDFTLTISSLQPEDFATYYCQQYFIYPRTFGQGTKVEIK
B2: bispecific binding molecule (format of WO2022/258841) with h26D3 LC1 scFv module (bispecific antibody, part only; not given: Cargo antibody chains, linkers, domain order, V domains shown, not shown: another chain or arm of the molecule; large carriers; small tags and cut ends)
VH: B1 VH
VL: B1 VL with Y31A
B3: bispecific binding molecule (format of WO2022/258841) with h26D3 HC6 scFv module (bispecific antibody, part only; not given: Cargo antibody chains, linkers, domain order, V domains shown, not shown: another chain or arm of the molecule; large carriers; small tags and cut ends)
VH: B1 VH with Y55A
VL: B1 VL
B4: bispecific binding molecule (format of WO2022/258841) with h26D3 LC5 scFv module (bispecific antibody, part only; not given: cargo antibody chains, linkers, format, V domains shown, not shown: another chain or arm of the molecule; large carriers; small tags and cut ends)
VH: B1 VH
VL: B1 VL with Y97A
B5: mouse monoclonal antibody 26D3 (antibody, mouse IgG2a, V domains shown)
VH: EVQLQQFGVELVKPGASVKISCKASGYIFTDYNMDWVKQSHGKSLEWIGDINPDYDTTSYNEKFKGKATLTVDKSSSTAYMELRSLTSEDTAVYYCARGGYSGSSYYHPMDYWGQGTSVTVSS
VL: DIVMSQSPSSLAVSVGEKITMSCKSSQSLLYSTNQKNYLAWYQQKPGQSPELLIYWASTRESGVPDRFTGSGSGTDFTLTISNVRAEDLAVYYCQQYFIYPRTFGGGTKLEIK

Key:
[1] = biological target: truncated hTfR1 of SEQ ID NO:89 (human) (UniProt P02786); test: SPR, hTfR1 on CM5, bispecific molecule with scFv module injected
[2] = biological target: His10-mTfR1 (SEQ ID NO:53) (mouse) (UniProt Q62351); test: indirect ELISA, His10-mTfR1 captured on Ni-coated plate, hybridoma supernatant
Chain of His10-mTfR1 (SEQ ID NO:53) (mouse) (Q62351 other isoform, or with tags, fused parts or gaps limits assumed): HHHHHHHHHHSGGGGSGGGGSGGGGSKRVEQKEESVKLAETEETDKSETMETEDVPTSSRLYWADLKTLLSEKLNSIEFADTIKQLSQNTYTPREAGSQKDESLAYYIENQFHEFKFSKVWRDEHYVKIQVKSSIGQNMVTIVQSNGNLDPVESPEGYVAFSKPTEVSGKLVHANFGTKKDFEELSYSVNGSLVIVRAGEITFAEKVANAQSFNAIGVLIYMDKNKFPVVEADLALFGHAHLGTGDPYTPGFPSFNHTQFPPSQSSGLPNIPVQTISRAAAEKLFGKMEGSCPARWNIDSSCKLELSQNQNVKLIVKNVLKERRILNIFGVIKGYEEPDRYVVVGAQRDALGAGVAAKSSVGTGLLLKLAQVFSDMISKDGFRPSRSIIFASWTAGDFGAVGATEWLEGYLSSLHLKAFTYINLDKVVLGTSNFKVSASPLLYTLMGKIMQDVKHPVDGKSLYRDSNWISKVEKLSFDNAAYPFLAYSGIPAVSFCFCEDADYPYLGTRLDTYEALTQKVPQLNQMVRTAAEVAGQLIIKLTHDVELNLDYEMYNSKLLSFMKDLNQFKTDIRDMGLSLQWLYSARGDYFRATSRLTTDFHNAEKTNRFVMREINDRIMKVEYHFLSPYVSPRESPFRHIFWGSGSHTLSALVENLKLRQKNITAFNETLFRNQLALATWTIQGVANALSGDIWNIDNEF

Chain of truncated hTfR1 of SEQ ID NO:89 (human) (P02786 other isoform, or with tags, fused parts or gaps limits assumed): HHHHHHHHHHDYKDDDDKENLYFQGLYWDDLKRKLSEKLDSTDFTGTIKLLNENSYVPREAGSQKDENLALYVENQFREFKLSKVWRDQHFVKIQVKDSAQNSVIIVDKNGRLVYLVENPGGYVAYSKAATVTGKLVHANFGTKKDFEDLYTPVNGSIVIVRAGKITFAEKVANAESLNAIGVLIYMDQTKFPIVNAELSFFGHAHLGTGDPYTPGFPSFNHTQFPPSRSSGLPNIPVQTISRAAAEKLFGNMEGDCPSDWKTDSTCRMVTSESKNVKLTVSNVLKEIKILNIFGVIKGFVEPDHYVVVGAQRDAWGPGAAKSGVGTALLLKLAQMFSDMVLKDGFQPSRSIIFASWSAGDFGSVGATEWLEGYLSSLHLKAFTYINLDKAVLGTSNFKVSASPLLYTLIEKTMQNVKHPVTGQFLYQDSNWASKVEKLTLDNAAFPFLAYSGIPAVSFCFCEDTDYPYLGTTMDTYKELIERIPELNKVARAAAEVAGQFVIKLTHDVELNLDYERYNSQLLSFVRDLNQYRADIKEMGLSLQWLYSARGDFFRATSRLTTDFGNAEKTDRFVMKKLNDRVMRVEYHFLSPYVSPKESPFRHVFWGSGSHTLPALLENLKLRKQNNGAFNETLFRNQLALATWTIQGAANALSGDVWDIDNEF

Row | Binder | Kd [1] [nM] | OD450 (indirect ELISA) [2] [OD]
1 | B1 | 10 | 
2 | B2 | 40 | 
3 | B3 | 100 to 200 | 
4 | B4 | 400 to 500 | 
5 | B5 |  | > 0.2
